Target: CsgB-His (curli nucleator CsgB with C-terminal poly-histidine tag) (E. coli) (UniProt P0ABK7)
Sequence of UniProt P0ABK7 (P0ABK7 22-151): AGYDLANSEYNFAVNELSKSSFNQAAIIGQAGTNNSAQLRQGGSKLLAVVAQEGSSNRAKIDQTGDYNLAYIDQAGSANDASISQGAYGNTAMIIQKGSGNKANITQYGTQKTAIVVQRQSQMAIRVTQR

Work on CsgA R5 subunit domain peptide yielded a ThT assay: reduction of tau50 of R5 fibril formation in the presence of CB-origami of 1.5 h.

Source: PMC6437208
